Source: patent US20250134975A1, “CANCER VACCINE COMPRISING EPITOPE OF C-MET AND USE THEREOF” (KOREA UNIVERSITY RESEARCH AND BUSINESS FOUNDATION, priority 2022, published 2025)
Entries after “also recorded” stand apart in the source; their conditions may differ.

What was measured:
M6-bone cells = experiment: Western blot of IFN-γ-treated cells; assay type: cell-based, mouse; conditions: 100 ng/ml IFN-γ, 18 hours
Description: M6 and M6-bone cells were stimulated with 100 ng/ml recombinant mouse IFN-γ and cultured in a medium containing 1% FBS for 18 hours. The cells were lysed in a buffered mixture of a PRO-PREP™ protein extraction solution (iNtRON Biotechnology, 17081) and a phosphatase inhibitor cocktail (Gen DEPOT, p3200-001). Protein concentration was measured using the Bradford assay (Bio-rad, 500-0006, Hercules, CA, USA). 30 μg of the protein was separated by SDS-polyacrylamide gel electrophoresis and transferred to a PVDF membrane (10600023), and then the membrane was blocked with Tris-buffered saline containing 0.05% Tween 20 and 5% non-fat milk powder for 1 hour. The PVDF membrane was incubated overnight at 4° C. with primary antibodies. HIF1α (NB100-105, Novusbio), c-MET, Akt (Cat #9272), and p-Akt (Cat #9271) antibodies were purchased from Cell Signaling Technology (Beverly, MA, USA), and β-actin (Cat #A5316) was purchased from Sigma (Saint Louis, MO, USA). Subsequently, a horseradish peroxidase-conjugated secondary antibody was cultured at room temperature for 1 hour. Immunoreactive bands were detected with a chemiluminescent reagent (Cat #RPN2106).

[1] = test system: bone marrow monocytes (BMMs); experiment: Osteoclastogenesis analysis in bone marrow monocytes (TRAP staining); assay type: cell-based, C3 (1)-Tag mice; conditions: IFN-γ 50, 100 ng/mL with M-CSF 30 ng/mL and RANKL 100 ng/mL, vs positive control
Description: Primary mouse bone marrow monocytes (BMMs) were isolated from the hind limb bones (two femurs and two tibiae) of 4 to 8 week-old C3 (1)-Tag mice. The mouse BMMs were flushed into a 15 ml tube via 8 ml of a serum-free 2 mM EDTA α-MEM medium. A Lymphocyte Separation Medium (LSM: MP Biomedicals: Catalog No. 50494) was dispensed into a new tube, 8 ml of the flushed BMMs were gently added thereon and centrifuged at 1600 rpm for 20 minutes at room temperature. The isolated BMMs were inoculated at 3×10^5 cells/well in a 48-well plate with 0.5 mL of a medium per well and incubated in α-MEM containing 10% FBS and 1% antibiotics.
BMMs in a negative control group were treated with M-CSF (30 ng/mL), BMMs in a positive control group were treated with M-CSF and RANKL (100 ng/mL), and BMMs in an experimental group were stimulated by treatment with M-CSF, RANKL, and IFN-γ (50, 100 ng/mL). On days 1, 3, 5, and 7 of culture, the medium was replaced, and each experimental group was treated with M-CSF, RANKL, and IFN-γ. After 9 days of culture, staining was performed using a TRAP staining kit (KT-008, KAMIYA biomedical company, Seattle, WA, USA) after fixing the cells with 10% formalin. For each well, TRAP-positive (TRAP^+) multinucleated cells (TRAP^+ MNC) were counted. All the experiments were independently repeated three times.

B1: IFN-γ: recombinant mouse IFN-γ, key cytokine of Th1 immunity (protein, UniProt P01580 23-155, looked up)
Interferon gamma: HGTVIESLESLNNYFNSSGIDVEEKSLFLDIWRNWQKDGDMKILQSQIISFYLRLFEVLKDNQAISNNISVIESHLITTFFSNSKAKKDAFMSIAKFEVNNPQVQRQAFNELIRVVHQLLPESSLRKRKRSRC
**Q.** B1 was tested. Which “expression of c-MET and p-Akt (Western blot)” value (M6-bone cells) did it give?
**A.** Its value is “decreased”.

**Q.** What about the “M-CSF and RANKL-induced osteoclastogenesis” value [1] of the same molecule?
**A.** Its value is “completely inhibited osteoclastogenesis; also recorded: inhibits”.
